Laboratory results taken from publication PMC5175356.
Like-named read-outs stand apart in the source and are kept apart here.

Experiments:
AtPOT1a OB1 [1] = target: T1, AtPOT1a OB1 (Arabidopsis thaliana, UniProt Q56Y52 1-158); assay: competition
T1 sequence: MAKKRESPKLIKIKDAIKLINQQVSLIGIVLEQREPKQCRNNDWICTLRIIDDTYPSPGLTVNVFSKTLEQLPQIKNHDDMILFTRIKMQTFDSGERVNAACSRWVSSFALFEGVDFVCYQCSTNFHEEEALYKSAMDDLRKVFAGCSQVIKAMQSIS

AtPOT1b OB1 = target: T2, AtPOT1b OB1 (Arabidopsis thaliana, UniProt Q6NKX5 1-159); assay: EMSA
T2 sequence: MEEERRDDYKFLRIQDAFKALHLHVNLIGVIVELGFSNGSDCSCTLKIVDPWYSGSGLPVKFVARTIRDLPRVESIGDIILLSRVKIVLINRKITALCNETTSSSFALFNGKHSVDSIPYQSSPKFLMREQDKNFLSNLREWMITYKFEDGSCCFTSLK

AtPOT1b OB1 V63F = target: T3, AtPOT1b OB1 V63F (Arabidopsis thaliana, UniProt Q6NKX5 1-159, V63F); assay: EMSA
T3 sequence: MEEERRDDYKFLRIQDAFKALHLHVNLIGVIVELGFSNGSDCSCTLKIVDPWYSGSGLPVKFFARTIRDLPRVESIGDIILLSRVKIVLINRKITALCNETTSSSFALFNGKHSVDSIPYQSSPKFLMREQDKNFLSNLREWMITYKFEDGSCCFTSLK

AtPOT1a OB1 [2] = target: T1, AtPOT1a OB1; assay: EMSA
AtPOT1a OB1 F65A = target: T4, AtPOT1a OB1 F65A (Arabidopsis thaliana, UniProt Q56Y52 1-158, F65A); assay: EMSA
T4 sequence: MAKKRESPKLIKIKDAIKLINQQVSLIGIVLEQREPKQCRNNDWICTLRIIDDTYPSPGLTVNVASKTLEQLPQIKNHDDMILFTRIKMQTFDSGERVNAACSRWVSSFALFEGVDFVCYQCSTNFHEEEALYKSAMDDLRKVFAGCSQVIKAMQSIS

AtPOT1a OB1 [3] = target: T1, AtPOT1a OB1; assay: EMSA; remark: listed apart in the source
AtPOT1a OB1 [4] = target: T1, AtPOT1a OB1; assay: EMSA; remark: listed apart in the source
AtPOT1a OB1 [5] = target: T1, AtPOT1a OB1; assay: EMSA; remark: listed apart in the source

TTAATTAACCCGGGGATCCGGCTTGATCAACGAATGATCC (ssDNA) [NS DNA]
binding signal (AtPOT1a OB1 [1]): 10 % reduction of binding

UUUAGGGUUUAGGGUUUAGGGUUUAGGGUUUAGGG (ssRNA) [(UUUAGGG)5]
binding signal (AtPOT1a OB1 [1]): 10 % reduction of binding

TTTAGGGTTTAGGGTTTAGGGTTTAGGGTTTAGGG (ssDNA) [(TTTAGGG)5]
binding result (AtPOT1b OB1): no binding | binding result (AtPOT1b OB1 V63F): binds | Kd (AtPOT1a OB1 [2]): 230 ± 30 nM | binding result (AtPOT1a OB1 F65A): no binding

TTTAGGGTTTAGGG (ssDNA) [(TTTAGGG)2]
Kd (AtPOT1a OB1 [2]): ~1000 nM

TTTAGGG (ssDNA)
binding result (AtPOT1a OB1 [3]): no binding

TAGGGTTTAGG (ssDNA) [minimal binding site 11-mer]
binding result (AtPOT1a OB1 [4]): binds

TTAGGGTTTAGG (ssDNA) [12-mer telomere]
binding result (AtPOT1a OB1 [5]): binds
